Assay results as given in patent EP4669352A1 (dated 2025).

Legend:
[1] = molecular target: T1, H3 protein (vaccinia virus, UniProt P07240 1-278); assay: ELISA on recombinant protein
T1 sequence: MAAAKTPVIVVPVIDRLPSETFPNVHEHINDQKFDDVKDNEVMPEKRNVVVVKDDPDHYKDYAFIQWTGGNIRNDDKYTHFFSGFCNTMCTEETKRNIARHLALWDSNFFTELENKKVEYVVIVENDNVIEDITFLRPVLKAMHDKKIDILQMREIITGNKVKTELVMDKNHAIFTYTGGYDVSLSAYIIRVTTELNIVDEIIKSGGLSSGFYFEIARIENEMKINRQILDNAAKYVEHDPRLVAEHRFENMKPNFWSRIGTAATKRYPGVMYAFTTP

[2] = molecular target: T1, H3 protein; assay: ELISA on recombinant VACV surface proteins
[3] = molecular target: T2, A27 protein (vaccinia virus, UniProt P11258 1-110); assay: ELISA on recombinant VACV surface proteins
T2 sequence: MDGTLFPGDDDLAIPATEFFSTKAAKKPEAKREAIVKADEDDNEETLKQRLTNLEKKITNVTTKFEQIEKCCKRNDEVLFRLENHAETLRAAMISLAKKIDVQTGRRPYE

[4] = molecular target: B5 protein (vaccinia virus, UniProt Q01227 18-279); assay: ELISA on recombinant VACV surface proteins
[5] = molecular target: T3, L1 protein (vaccinia virus, UniProt P07612 1-183); assay: ELISA on recombinant VACV surface proteins
T3 sequence: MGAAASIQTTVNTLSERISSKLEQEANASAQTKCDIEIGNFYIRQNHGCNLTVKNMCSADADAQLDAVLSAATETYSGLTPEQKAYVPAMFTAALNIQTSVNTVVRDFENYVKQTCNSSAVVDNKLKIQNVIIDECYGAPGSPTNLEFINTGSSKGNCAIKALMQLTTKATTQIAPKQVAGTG

[6] = molecular target: T4, VACV A33 recombinant protein (vaccinia virus, UniProt P68616 89-185); assay: ELISA on recombinant VACV surface proteins
[7] = molecular target: T4, VACV A33 recombinant protein

B1: MV26 (antibody, V domains shown)
VH: EVQLAESGGGLVQPGGSLRLSCAASGFTFSNYWMYWFRQAPGKGLEWVSSISGSRRNIHYSDSVRGRFTVSRDNAKSTLSLQMNSLRPEDTAVYYCAREGETSTFYFGYWGQGVLVTASS
VL: KPMLTQPPSVSVSPGQTARITCGGDNLGTKNVQWYQQKSAQAPVVVIYDDGERPSGIPERFSGSKSGNVATLTISGVEAGDDADYYCQVWDGSSDHPIFGRGTRLTVL
binding result [1]: binds

B2: EV4 (antibody, V domains shown)
VH: QVQLQESGPGLVKPSETLSLTCAVSGGSISNNYWSWVRQAPGKGLEWIGRIYGSSGSSSYNPSLTGRLTISRDTSKNQLSLRLNSMTAADTAFYYCVRQYFGPRGAFDFWGQGLRVTVSS
VL: QPGLTQSPSASEAARKSVTISCSGSSSNIGSNSVSWYQQLPETAPKLLVYYNDRRASSVSDRFSGSKSGTSASLAISGLQTEDEADYYCAAWDNSLSGYVFGAGTRLTVL
binding result [2]: no binding | binding result [3]: no binding | binding result [4]: no binding | binding result [5]: no binding | binding result [6]: no binding

B3: MV31 (antibody, V domains shown)
VH: EVQLAESGGGLVPPDGSLRLSCTASGFTFSNYWMYWFRQAPGKGLEWVASISGSRRNIDYSDSVKGRFTISRDNAKNTLFLQMNRLRGDDTAVYYCAREGETSTYFFDPWGQGVLVTASS
VL: QPVLTQPPTVSKSLGQSVTISCTGTSSDVGGYNYVSWYQQRPGKAPKLLIYEVTKRPSGVSDRFSGSKSGNTASLTISGLQAEDEADYYCSSYTTSNTYIFGTGTRLTVL
binding result [1]: binds

B4: EV42 (antibody, V domains shown)
VH: EVQLVESGPRLVKPSETLSLTCAVSGASITSNYWSWIRQPPGKGLEWIGRTPGSSGSTDYNPSLKSRVTISTDTSKNQFSLKLTSVTAADTAVYFCARRYTDSYYLYYFDFWSQGVLVTVSS
VL: QSALTQPPSVSGSPGQSVTISCTGTNSDIGSYKYVSWYQKHPGKAPKLVIYDVSQRPSGVSDRFSGSKSGNTASLTISGLQAEDEADYYCSSYAGINTFNVFGSGTKLTIL
Kd [7]: 0.095 nM

B5: MV7 (antibody, V domains shown)
VH: QEQLVQSGGGLAKPGGSLRISCAASGFVFSRSAMHWVRQAPGKGLEWVSGISGGGATYYADSVKGRFTISRDNSKNTFSLQMNSLRLEDTAVYYCAKDRRRSVASSYFDSWGQGVLVTVSS
VL: QSVLTQPQSVSVSPGQTARISCGGDNIGSKNVHWYQQKPPQAPVLVIYAGTERPSGIPERFSGSNSGNTATLTISGVEAGDEADYYCQVWDGTREHVLFGGGTRLTVL
binding result [1]: binds
